The values that follow come from patent publication US11981713B2, “Method for manufacturing a stable emulsion for peptide delivery” (OSE IMMUNOTHERAPEUTICS, priority 2017, dated 2024).

Holding throughout (type): physicochemical
The nature of data set [1]: Peptide concentration in emulsions prepared with different stirring times. As to conditions: initial concentration in emulsion. The procedure: Emulsions according to this invention were prepared as described in Example 5, using different stirring times.
A short description of data set [2]: Comparative experiment: emulsion made with high shear mixer, consistency and peptide oxidation. As to conditions: high shear mixer batches at 5000 and 8000 rpm. The procedure:
The suspension prepared as described in Example 1 was mixed with the same adjuvant, in the same ratio, except that mixing was conducted by means of a high shear mixer (Silverson® Verso) having a rotor-stator configuration. […] Other batches obtained with the same mixer at 5000 and 8000 rpm led to peptide degradation. Specifically, 8.5% oxidation of peptide […] (SEQ ID NO: 5) was noted after 6 weeks storage at 4° C. and still 2% oxidation at −20° C.

A short description of data set [3]: Chemical stability of the emulsion (peptide content by LC/MS). As to conditions: for Content after 2 month at 5° C.: emulsion of Example 5, 2 month at 5° C.; for Content after 2 month at 25° C.: emulsion of Example 5, 2 month at 25° C.; for Content after 2 month at −20° C.: emulsion of Example 5, 2 month at −20° C.; for Initial content: emulsion of Example 5, initial. The procedure: The chemical stability of the peptides contained in the emulsion prepared according to Example 5 is assessed by means of the following method.
A sample of 0.9 g of the emulsion of Example 5 is accurately weighted and mixed with 0.1% TFA in DMSO so as to fill a 5 mL volumetric flask. The mixture is then vortexed for 2 minutes and centrifuged for 7 minutes at 4000 rpm. The lower layer is then analyzed by Liquid Chromatography/Mass Spectroscopy (LC/MS) using the following chromatographic conditions:
Column: Advance Bio Peptide Mapping LC column, 2.1×250 mm, 2.7 μm, C18, 120 Å, Agilent® reference n° 651750-902 or equivalent
Column temperature: 35° C.±2° C.
Sample temperature: 5° C.
Needle wash: 0.1% Trifluoroacetic acid (TFA) in dimethylsulfoxide (DMSO)
Mobile phase: Eluent A: 0.2% TFA in 5% acetonitrile
• Eluent B: 0.2% TFA in 95% acetonitrile Gradient table: […]
A standard solution is prepared by transferring 0.9 mL of the batch suspension described in Example 1 with 1.1 mL of Montanide ISA 51 in a 10.0 mL volumetric flask, then vortexing and centrifuging the mixture as described above. The lower layer thus obtained is analyzed in the same conditions as above.
The concentration of each peptide is expressed in mg/g using the formula:
[formula] where: A: is the peak area of each peptide in the sample solution S: is the peak area of each peptide in the standard solution W: is the sample weight expressed in g

IMIGHLVGV [MPS-214] came in with a Concentration in data set [1] (stirring time 5 minutes) of 530 µg/mL. In data set [1] (stirring time 10 minutes), this substance yielded a Concentration of 530 µg/mL. In addition, the Concentration in data set [1] (stirring time 15 minutes) was 530 µg/mL. Moreover, the oxidation in data set [2] (after 6 weeks storage at 4° C.) is listed as 16.5%. Moreover, the oxidation in data set [2] (storage at −20° C.) is on record as 4%. In data set [3], the “Content after 2 month at 5° C.” value amounted to 0.51 mg/g, the “Content after 2 month at 25° C.” value was determined as 0.50 mg/g, the “Content after 2 month at −20° C.” value was 0.51 mg/g and the Initial content turned out to be 0.53 mg/g.

In the case of KLBPVQLWV [MPS-102], the Concentration in data set [1] (stirring time 5 minutes) turned out to be 560 µg/mL. In data set [1] (stirring time 10 minutes), this substance registered a Concentration of 570 µg/mL. Besides, the Concentration in data set [1] (stirring time 15 minutes) was found to be 560 µg/mL. Also, in data set [3], the “Content after 2 month at 5° C.” value came to 0.55 mg/g, the “Content after 2 month at 25° C.” value is recorded as 0.55 mg/g, the “Content after 2 month at −20° C.” value is 0.55 mg/g and the Initial content is recorded as 0.57 mg/g.

Substance LLTFWNPPV [MPS-213] registered a Concentration in data set [1] (stirring time 5 minutes) of 560 µg/mL. The substance also came in with a Concentration in data set [1] (stirring time 10 minutes) of 560 µg/mL. The substance also had a Concentration in data set [1] (stirring time 15 minutes) of 560 µg/mL. Besides, in data set [3], the “Content after 2 month at 5° C.” value is given as 0.54 mg/g, the “Content after 2 month at 25° C.” value was 0.54 mg/g, the “Content after 2 month at −20° C.” value was 0.55 mg/g and the Initial content stood at 0.56 mg/g.

For RLLQETELV [MPS-112], in data set [1] (stirring time 5 minutes), the Concentration is 560 µg/mL. For the same substance, in data set [1] (stirring time 10 minutes), the Concentration was found to be 570 µg/mL. In data set [1] (stirring time 15 minutes), this substance had a Concentration of 560 µg/mL. In data set [3], the “Content after 2 month at 5° C.” value was found to be 0.55 mg/g, the “Content after 2 month at 25° C.” value is 0.55 mg/g, the “Content after 2 month at −20° C.” value amounted to 0.55 mg/g and the Initial content was found to be 0.57 mg/g.

As to SMPPPGTRV [MPS-103], the Concentration stood at 530 µg/mL in data set [1] (stirring time 5 minutes), 560 µg/mL in data set [1] (stirring time 10 minutes) and 540 µg/mL in data set [1] (stirring time 15 minutes). Moreover, the figures for the oxidation in data set [2] (after 6 weeks storage at 4° C.) and in data set [2] (storage at −20° C.) were 8.5% and 2%, respectively. In addition, the “Content after 2 month at 5° C.” value in data set [3] is reported as 0.54 mg/g. In data set [3], the “Content after 2 month at 25° C.” value turned out to be 0.54 mg/g. For the same substance, in data set [3], the “Content after 2 month at −20° C.” value is on record as 0.55 mg/g. In data set [3], this substance displayed an Initial content of 0.55 mg/g.

For YLSGADLNL [MPS-200], the Concentration in data set [1] (stirring time 5 minutes) amounted to 570 µg/mL. In data set [1] (stirring time 10 minutes), this substance had a Concentration of 570 µg/mL. In addition, the Concentration in data set [1] (stirring time 15 minutes) came out at 570 µg/mL. In data set [3], the “Content after 2 month at 5° C.” value stood at 0.56 mg/g, the “Content after 2 month at 25° C.” value came to 0.55 mg/g, the “Content after 2 month at −20° C.” value is 0.56 mg/g and the Initial content turned out to be 0.58 mg/g.

Substance “aKXVAAWTLKAAa [MPS-7, peptide with X and a respectively indicating cyclohexylalanine and d-alanine]” came in with a Concentration in data set [1] (stirring time 5 minutes) of 580 µg/mL. In data set [1] (stirring time 10 minutes), this substance came in with a Concentration of 580 µg/mL. In data set [1] (stirring time 15 minutes), this substance yielded a Concentration of 570 µg/mL. In addition, in data set [3], the “Content after 2 month at 5° C.” value is on record as 0.56 mg/g, the “Content after 2 month at 25° C.” value is listed as 0.56 mg/g, the “Content after 2 month at −20° C.” value worked out at 0.56 mg/g and the Initial content came out at 0.58 mg/g.
